The record followed here is publication PMC9750192 (The Journal of Cell Biology, 2022).

For the test, the target named is VASH2 (Cys158Ala), the VASH2 chain of the cryo-EM sample (human, UniProt Q86V25 1-355, Cys158 to alanine). In words: cryo-EM structure.
VASH2 (Cys158Ala), the VASH2 chain of the cryo-EM sample, sequence (Q86V25 whole entry C158A): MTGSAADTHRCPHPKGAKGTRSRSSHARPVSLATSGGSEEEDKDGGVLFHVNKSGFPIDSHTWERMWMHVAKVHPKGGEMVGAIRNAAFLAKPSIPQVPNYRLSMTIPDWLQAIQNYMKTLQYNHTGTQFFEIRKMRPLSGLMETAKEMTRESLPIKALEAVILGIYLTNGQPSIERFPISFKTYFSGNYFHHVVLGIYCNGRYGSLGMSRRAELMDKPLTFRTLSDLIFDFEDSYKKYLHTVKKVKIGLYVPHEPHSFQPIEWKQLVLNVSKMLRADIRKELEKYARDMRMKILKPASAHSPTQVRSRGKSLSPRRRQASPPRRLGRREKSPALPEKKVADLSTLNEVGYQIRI

B1: SVBP with a 6His tag, the SVBP chain of the cryo-EM sample (natural protein, human, UniProt Q8N300 1-66, looked up)
chain: MDPPARKEKTKVKESVSRVEKAKQKSAQQELKQRQRAEIYALNRVMTELEQQQFDEFCKQMQPPGE
Regarding B1, the binding result was “binds”.
